Numbered stars: 1 amine (or outer) side, 2 acyl side, 3 side chain; on linkers, the order of the positions; unused ones are H or OH. Bridge positions count the residues as written; N and C are the ends. Side chains are listed from the residue outwards. Ends that are not written are not given here. * marks the point of attachment. C20 diacid = O=C(O)CCCCCCCCCCCCCCCCCCC(=O)*; C18 diacid = O=C(O)CCCCCCCCCCCCCCCCC(=O)*; C16 diacid = O=C(O)CCCCCCCCCCCCCCC(=O)*; γGlu = O=C(O)[C@H](CCC(=O)[*:2])N[*:1]; C14 diacid = O=C(O)CCCCCCCCCCCCC(=O)*; AEEA = NCCOCCOCC(=O)O
B1: N^α1-[2-[2-[2-[[2-[2-[2-[[(4S)-4-carboxy-4-(19-carboxynonadecanoylamino)butanoyl]amino]ethoxy]ethoxy]acetyl]amino]ethoxy]ethoxy]acetyl]-[Glu14,Arg17,Pro21,Pro27 … (peptide)
peptide: {C20 diacid-γGlu-AEEA-AEEA}-KCNTATCATQRLAEFLRHSSPNFGAIPSSTNVGSNTP-NH2
modifications: disulfide 2-7
SMILES: CC[C@H](C)[C@H](NC(=O)[C@H](C)NC(=O)CNC(=O)[C@H](Cc1ccccc1)NC(=O)[C@H](CC(N)=O)NC(=O)[C@@H]1CCCN1C(=O)[C@H](CO)NC(=O)[C@H](CO)NC(=O)[C@H](Cc1c[nH]cn1)NC(=O)[C@H](CCCNC(=N)N)NC(=O)[C@H](CC(C)C)NC(=O)[C@H](Cc1ccccc1)NC(=O)[C@H](CCC(=O)O)NC(=O)[C@H](C)NC(=O)[C@H](CC(C)C)NC(=O)[C@H](CCCNC(=N)N)NC(=O)[C@H](CCC(N)=O)NC(=O)[C@@H](NC(=O)[C@H](C)NC(=O)[C@@H]1CSSC[C@H](NC(=O)[C@H](CCCCN)NC(=O)COCCOCCNC(=O)COCCOCCNC(=O)CC[C@H](NC(=O)CCCCCCCCCCCCCCCCCCC(=O)O)C(=O)O)C(=O)N[C@@H](CC(N)=O)C(=O)N[C@@H]([C@@H](C)O)C(=O)N[C@@H](C)C(=O)N[C@@H]([C@@H](C)O)C(=O)N1)[C@@H](C)O)C(=O)N1CCC[C@H]1C(=O)N[C@@H](CO)C(=O)N[C@@H](CO)C(=O)N[C@H](C(=O)N[C@@H](CC(N)=O)C(=O)N[C@H](C(=O)NCC(=O)N[C@@H](CO)C(=O)N[C@@H](CC(N)=O)C(=O)N[C@H](C(=O)N1CCC[C@H]1C(N)=O)[C@@H](C)O)C(C)C)[C@@H](C)O
notes: also called compound 20
B2: N^α1-[(4S)-4-carboxy-4-[[(4S)-4-carboxy-4-(19-carboxynonadecanoylamino)butanoyl]amino]butanoyl]-[Glu14,Arg17,Pro21,Pro27,Pro37]-h-amylin (peptide)
peptide: {C20 diacid-γGlu-γGlu}-KCNTATCATQRLAEFLRHSSPNFGAIPSSTNVGSNTP-NH2
modifications: disulfide 2-7
SMILES: CC[C@H](C)[C@H](NC(=O)[C@H](C)NC(=O)CNC(=O)[C@H](Cc1ccccc1)NC(=O)[C@H](CC(N)=O)NC(=O)[C@@H]1CCCN1C(=O)[C@H](CO)NC(=O)[C@H](CO)NC(=O)[C@H](Cc1c[nH]cn1)NC(=O)[C@H](CCCNC(=N)N)NC(=O)[C@H](CC(C)C)NC(=O)[C@H](Cc1ccccc1)NC(=O)[C@H](CCC(=O)O)NC(=O)[C@H](C)NC(=O)[C@H](CC(C)C)NC(=O)[C@H](CCCNC(=N)N)NC(=O)[C@H](CCC(N)=O)NC(=O)[C@@H](NC(=O)[C@H](C)NC(=O)[C@@H]1CSSC[C@H](NC(=O)[C@H](CCCCN)NC(=O)CC[C@H](NC(=O)CC[C@H](NC(=O)CCCCCCCCCCCCCCCCCCC(=O)O)C(=O)O)C(=O)O)C(=O)N[C@@H](CC(N)=O)C(=O)N[C@@H]([C@@H](C)O)C(=O)N[C@@H](C)C(=O)N[C@@H]([C@@H](C)O)C(=O)N1)[C@@H](C)O)C(=O)N1CCC[C@H]1C(=O)N[C@@H](CO)C(=O)N[C@@H](CO)C(=O)N[C@H](C(=O)N[C@@H](CC(N)=O)C(=O)N[C@H](C(=O)NCC(=O)N[C@@H](CO)C(=O)N[C@@H](CC(N)=O)C(=O)N[C@H](C(=O)N1CCC[C@H]1C(N)=O)[C@@H](C)O)C(C)C)[C@@H](C)O
notes: also called compound 14
B3: N^-1-[(4S)-4-carboxy-4-(19-carboxynonadecanoylamino)butanoyl]-Gly[Arg1,His14,Arg17,Pro21,Pro27,Pro34]-h-amylin (peptide)
peptide: {C20 diacid-γGlu}-GRCNTATCATQRLAHFLRHSSPNFGAIPSSTNVGPNTY-NH2
modifications: disulfide 3-8
SMILES: CC[C@H](C)[C@H](NC(=O)[C@H](C)NC(=O)CNC(=O)[C@H](Cc1ccccc1)NC(=O)[C@H](CC(N)=O)NC(=O)[C@@H]1CCCN1C(=O)[C@H](CO)NC(=O)[C@H](CO)NC(=O)[C@H](Cc1c[nH]cn1)NC(=O)[C@H](CCCNC(=N)N)NC(=O)[C@H](CC(C)C)NC(=O)[C@H](Cc1ccccc1)NC(=O)[C@H](Cc1c[nH]cn1)NC(=O)[C@H](C)NC(=O)[C@H](CC(C)C)NC(=O)[C@H](CCCNC(=N)N)NC(=O)[C@H](CCC(N)=O)NC(=O)[C@@H](NC(=O)[C@H](C)NC(=O)[C@@H]1CSSC[C@H](NC(=O)[C@H](CCCNC(=N)N)NC(=O)CNC(=O)CC[C@H](NC(=O)CCCCCCCCCCCCCCCCCCC(=O)O)C(=O)O)C(=O)N[C@@H](CC(N)=O)C(=O)N[C@@H]([C@@H](C)O)C(=O)N[C@@H](C)C(=O)N[C@@H]([C@@H](C)O)C(=O)N1)[C@@H](C)O)C(=O)N1CCC[C@H]1C(=O)N[C@@H](CO)C(=O)N[C@@H](CO)C(=O)N[C@H](C(=O)N[C@@H](CC(N)=O)C(=O)N[C@H](C(=O)NCC(=O)N1CCC[C@H]1C(=O)N[C@@H](CC(N)=O)C(=O)N[C@H](C(=O)N[C@@H](Cc1ccc(O)cc1)C(N)=O)[C@@H](C)O)C(C)C)[C@@H](C)O
B4: N^-1-[(4S)-4-carboxy-4-(19-carboxynonadecanoylamino)butanoyl]-Gly[Arg1,Ala14,Arg17,Pro21,Pro27,His34]-h-amylin (peptide)
peptide: {C20 diacid-γGlu}-GRCNTATCATQRLAAFLRHSSPNFGAIPSSTNVGHNTY-NH2
modifications: disulfide 3-8
SMILES: CC[C@H](C)[C@H](NC(=O)[C@H](C)NC(=O)CNC(=O)[C@H](Cc1ccccc1)NC(=O)[C@H](CC(N)=O)NC(=O)[C@@H]1CCCN1C(=O)[C@H](CO)NC(=O)[C@H](CO)NC(=O)[C@H](Cc1c[nH]cn1)NC(=O)[C@H](CCCNC(=N)N)NC(=O)[C@H](CC(C)C)NC(=O)[C@H](Cc1ccccc1)NC(=O)[C@H](C)NC(=O)[C@H](C)NC(=O)[C@H](CC(C)C)NC(=O)[C@H](CCCNC(=N)N)NC(=O)[C@H](CCC(N)=O)NC(=O)[C@@H](NC(=O)[C@H](C)NC(=O)[C@@H]1CSSC[C@H](NC(=O)[C@H](CCCNC(=N)N)NC(=O)CNC(=O)CC[C@H](NC(=O)CCCCCCCCCCCCCCCCCCC(=O)O)C(=O)O)C(=O)N[C@@H](CC(N)=O)C(=O)N[C@@H]([C@@H](C)O)C(=O)N[C@@H](C)C(=O)N[C@@H]([C@@H](C)O)C(=O)N1)[C@@H](C)O)C(=O)N1CCC[C@H]1C(=O)N[C@@H](CO)C(=O)N[C@@H](CO)C(=O)N[C@H](C(=O)N[C@@H](CC(N)=O)C(=O)N[C@H](C(=O)NCC(=O)N[C@@H](Cc1c[nH]cn1)C(=O)N[C@@H](CC(N)=O)C(=O)N[C@H](C(=O)N[C@@H](Cc1ccc(O)cc1)C(N)=O)[C@@H](C)O)C(C)C)[C@@H](C)O

molecular target: T1, human calcitonin receptor (human, UniProt P30988 25-474); assay: cell-based or functional assay
T1 sequence (looked up): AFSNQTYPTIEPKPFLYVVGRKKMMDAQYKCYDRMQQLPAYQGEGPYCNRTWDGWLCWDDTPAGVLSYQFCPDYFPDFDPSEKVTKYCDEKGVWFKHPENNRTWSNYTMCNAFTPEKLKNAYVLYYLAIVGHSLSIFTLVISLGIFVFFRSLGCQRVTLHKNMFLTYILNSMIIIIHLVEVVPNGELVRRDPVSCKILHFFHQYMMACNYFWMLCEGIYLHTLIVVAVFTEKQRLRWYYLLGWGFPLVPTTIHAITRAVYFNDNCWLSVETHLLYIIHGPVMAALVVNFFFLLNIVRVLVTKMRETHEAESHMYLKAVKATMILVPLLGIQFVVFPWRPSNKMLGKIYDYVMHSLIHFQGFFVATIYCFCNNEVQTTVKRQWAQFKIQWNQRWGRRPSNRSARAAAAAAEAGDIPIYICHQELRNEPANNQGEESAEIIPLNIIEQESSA

Row | Binder | hCTR funct. EC50 (pM)
1 | K([γGlu-γGlu-C20 diacid])CNTATCATQRLAEFLRHSSPNFGAIPSSTNVGPETY-NH2 (disulfide 2-7 (inferred), Synthetic) | 2360
2 | K([γGlu-C20 diacid])CNTATCATQRLAEFLRHSSPNFGAIPSSTNVGPRTY-NH2 (disulfide 2-7 (inferred), Synthetic) | 6380
3 | K([γGlu-C20 diacid])CNTATCATQRLAEFLRHSSPNFGAIPSSTNVGHETY-NH2 (disulfide 2-7 (inferred), Synthetic; also called compound 107) | 2540
4 | K([γGlu-γGlu-C20 diacid])CNTATCATQRLADFLRHSSPNFGAIPSSTNVGPRTY-NH2 (disulfide 2-7 (inferred), Synthetic; also called compound 130) | 7280
5 | K([γGlu-C18 diacid])CNTATCATQRLANFLRHSSPNFGAIPSSTNVGHNTY-NH2 (disulfide 2-7 (inferred), Synthetic) [N^ε1-[(4S)-4-carboxy-4-(17-carboxyheptadecanoylamino)butanoyl]-[Arg17,Pro21,Pro27,His34]-h-amylin] | 5850
6 | K([γGlu-C20 diacid])CNTATCATQRLADFLRHSSPNFGAIPSSTNVGPRTY-NH2 (disulfide 2-7 (inferred), Synthetic) | 3640
7 | K([γGlu-C20 diacid])CNTATCATQRLAEFLRHSSPNFGAIPSSTNVGSHTY-NH2 (disulfide 2-7 (inferred), Synthetic) | 5580
8 | K([γGlu-γGlu-C20 diacid])CNTATCATQRLADFLRHSSPNFGAIPSSTNVGPETY-NH2 (disulfide 2-7 (inferred), Synthetic) | 843
9 | K([γGlu-C16 diacid])CNTATCATQRLANFLRHSSPNFGAIPSSTNVGHNTY-NH2 (disulfide 2-7 (inferred), Synthetic) [N^ε1-[(4S)-4-carboxy-4-(15-carboxypentadecanoylamino)butanoyl]-[Arg17,Pro21,Pro27,His34]-h-amylin] | 2210
10 | K([γGlu-C20 diacid])CNTATCATQRLAEFLRHSSPNFGAIPSSTNVGRETY-NH2 (disulfide 2-7 (inferred), Synthetic) | 2740
11 | K([γGlu-C14 diacid])CNTATCATQRLANFLRHSSPNFGAIPSSTNVGHNTY-NH2 (disulfide 2-7 (inferred), Synthetic) [N^ε1-[(4S)-4-carboxy-4-(13-carboxytridecanoylamino)butanoyl]-[Arg17,Pro21,Pro27,His34]-h-amylin] | 1090
12 | K([γGlu-γGlu-C20 diacid])CNTATCATQRLANFLRHSSPNFGAIPSSTPVGPRTY-NH2 (disulfide 2-7 (inferred), Synthetic) | 8660
13 | K([γGlu-C20 diacid])CNTATCATQRLAEFLRHSSPNFGAIPSSTNVGPHTY-NH2 (disulfide 2-7 (inferred), Synthetic) | 1450

molecular target: T2, human amylin 3(a) receptor (human calcitonin receptor + RAMP-3) (human, UniProt P30988 25-474; O60896 24-148, limits assumed); assay: cell-based or functional assay
T2 sequence (looked up) 1: T1 sequence (looked up)
T2 sequence (looked up) 2: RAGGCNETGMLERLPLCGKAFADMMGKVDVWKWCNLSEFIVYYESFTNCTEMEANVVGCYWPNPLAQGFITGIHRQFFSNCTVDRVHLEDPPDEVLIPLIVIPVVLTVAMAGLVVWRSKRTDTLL

Row | Binder | hAmylin-R funct. EC50 (pM)
14 | B1 | 80
15 | B2 | 146
16 | {C20 diacid-γGlu}-GRCNTATCATQRLAAFLRHSSPNFGAIPSSTNVGPNTY-NH2 (disulfide 3-8) | 70
17 | B3 | 62
18 | B4 | 109

molecular target: T3, human calcitonin receptor (human, UniProt P30988 25-474); assay: cell-based or functional assay
T3 sequence (looked up): T1 sequence (looked up)

Row | Binder | Ratio hCT/hAmylin funct.
19 | B1 | 3.6
20 | B2 | 1.6
21 | {C20 diacid-γGlu}-GRCNTATCATQRLAAFLRHSSPNFGAIPSSTNVGPNTY-NH2 (disulfide 3-8) | 2.1
22 | B3 | 2.9
23 | B4 | 4.9
